“Also recorded” adds a separate entry of the source.
B1: DBP89: designed DNA-binding protein, SEQ ID NO: 48, DNA target A (protein)
chain: SPAAFDKLTARELAVARLVAQGLPNREIAAALHISPRAVEAHLRKIYRKLGIRRRRELAALLA
B2: DBP62: designed DNA-binding protein, SEQ ID NO: 36, DNA target F (protein)
chain: KEELEKLLKIIESLPKKFREVIILKFVEGLSYTEIAERLGVSRGAVYSRLRSALKKIEEALKK
B3: DBP47: designed DNA-binding protein, SEQ ID NO: 21, DNA target D (protein)
chain: MTPEERERAKEIGREIRELRRERGLTQRELADLLGVSRSTVSDIESGRRLPSEELLRRIREILGV
B4: DBP5: designed DNA-binding protein, SEQ ID NO: 3, DNA target A (protein)
chain: GFGKAVKAKRAELGLTQAEFAERAGLSRRTIIRIEQGKVKATSTTAEKIAAALGTTVQELEQA
B5: DBP56: designed DNA-binding protein, SEQ ID NO: 30, DNA target E (protein)
chain: PPPTPFEVAGARIKEERAKLGLTQAELAKVAGVGQATVSRIEKGRKCSWELIEKIFEALKKV
B6: DBP60: designed DNA-binding protein, SEQ ID NO: 34, DNA target E (protein)
chain: DIEKIAKAVKELREELGLTQAEFAKKIGIGQGTLSRFEKGGVLSPKTMERLLKALEKEFGFDVKK
B7: DBP43: designed DNA-binding protein, SEQ ID NO: 17, DNA target G (protein)
chain: MEELKKLLESGDPKLQGEAVKKIREKLGLTQREFGKKIGVGQAKVSRIEAGKIKLTPELKEKILE

What was measured:
[1] = test system: 13 unique dsDNA targets; test: All-by-all yeast surface display screen of DBP design hits; type: binding; conditions: for Target sequence preference: 13 unique dsDNA targets; for Number of the 13 tested DNA target sequences preferentially bound: including designed target sequence; for Binding specificity versus design models: all-by-all screen with Rosetta-predicted motifs
Protocol: And an all-by-all screen of DBP design hits to 13 unique dsDNA targets was performed (FIG. 4, table 2). […] To try to understand these observed binding preferences, each tested DNA sequence was threaded onto each design complex model at all possible base pair alignments, the alternative complex models were relaxed with Rosetta™, and the model with the most favorable Rosetta™ ΔΔG was selected.
Saccharomyces cerevisiae EBY100 strain cultures were grown in C-Trp-Ura medium supplemented with 2% (w/v) glucose. For induction of expression, yeast cells were centrifuged at 6,000 g for 1 min and resuspended in SGCAA medium supplemented with 0.2% (w/v) glucose at the cell density of 1×10^7 cells per ml and induced at 30° C. for 16-24 h. Cells were washed with PBSF (PBS with 1% (w/v) BSA) and labeled with biotinylated targets using two labeling methods: with-avidity and without-avidity labeling. For the with-avidity method, the cells were incubated with biotinylated target, together with anti-c-Myc fluorescein isothiocyanate (FITC, Miltenyi Biotech) and streptavidin-phycoerythrin (SAPE, ThermoFisher). The concentration of SAPE in the with-avidity method was used at one-quarter of the concentration of the biotinylated targets. For the without-avidity method, the cells were first incubated with biotinylated targets, washed and secondarily labeled with SAPE and FITC.
(§1) For yeast display characterization of individual designs, including competition assays, DNA sequences encoding the proteins of interest were purchased as Integrated DNA Technologies (IDT) E-Blocks™, transformed into yeast cells, and incubated in 96 well culture plates. Labeling with biotinylated dsDNA targets and SAPE/FITC was performed in a 96 well plate format. For yeast display competition assays, labeling was performed without avidity using 1 μM biotinylated dsDNA duplex oligos and an excess of 8 μM non-biotinylated competitor dsDNA duplex oligos. […] Flow cytometry analysis was performed with an Attune NxT™ flow cytometer with autosampler. Flow cytometry data analysis was performed using custom python code and the CytoFlow™ python package. For each individual sample, gating of the expression population was performed using the CytoFlow™ Gaussian Mixture Model and the ratio of SAPE channel intensity to FITC channel intensity (binding signal/expression signal) was calculated for all gated expression events of the sample.

[2] = test system: synTF-specific cis-regulatory elements (CRE) in HEK293T cells; test: Transcriptional activation by synTFs in HEK293T cells (ENGRAM); type: cell-based; conditions: DBP fused to GCN4 dimerization domain and VP64; HEK293T cells expressing PEmax; dependent on spacing between motifs
Excerpt: Next, we investigated whether the DBPs can be used as activators in mammalian cells. A set of synthetic transcription factors (synTFs) were created by fusing the GCN4 dimerization domain and the VP64 activation domain to the C-termini of DBPs 9, 35opt, 48, 57, and 60 which recognize 3 unique motifs. The dimerization domain allows the DBPs to recognize a palindromic target sequence consisting of two binding motifs, improving the binding affinity to the DNA sequence (FIG. 2C). We created synTF specific cis-regulatory elements (CRE) with 4 repeats spaced by 6 bp to drive the expression of downstream genes, and used the ENGRAM (43) recording technology to measure the activity of the synTFs in HEK293 cells. In ENGRAM, each CRE drives the expression of a uniquely barcoded pegRNA, which upon expression is recorded into the DNA TAPE at the HEK3 locus by prime-editor (PEmax); the activity of individual synTFs can be measured as the abundance of the barcode on the DNA TAPE (FIG. 2C). We first tested 3 different spacings-1 bp, 3 bp, and 5 bp-between the palindromic binding motifs to maximize the recorder activity. 3 synTF specific recorders and 1 TCF-LEF-recorder (negative control) were mixed with ratio 2:2:2:1 and co-transfected with synTFs into the HEK293T cells expressing PEmax. Cells were harvested and analyzed 2 days post-transfection. After analyzing the barcode abundance on the DNA TAPE, we observed 3-5 fold activation for DBP9/DBP35 and DBP57/DBP60 (FIG. 2D).
HEK293T cells expressing PEmax™ were cultured in DMEM High glucose (GIBCO), supplemented with 10% Fetal Bovine Serum (Rocky Mountain Biologicals) and 1% penicillin-streptomycin (GIBCO). Cells were grown with 5% CO2 at 37° C. 1×10^5 cells were seeded on a 48-well plate a day before transfection. Enhancer plasmid and binder plasmid were mixed with a ratio of 2:1. Enhancer variants and background control were mixed with a ratio of 2:2:2:1. A total of 300 ng of plasmid were transfected using Lipofectamine™ 3000 (ThermoFisher, L3000015), following the manufacturer's protocol. Cells were harvested 2 days post-transfection. Genomic DNA was extracted based on the protocol described earlier (43). Briefly, cells were lysed using freshly prepared lysis buffer (10 mM Tris-HCl, pH 7.5; 0.05% SDS; 25 µg/ml protease (ThermoFisher)) for each well. The genomic DNA mixture was incubated at 50° C. for 1 h, followed by an 80° C. enzyme inactivation step for 30 min. The DNA TAPE was amplified from the genomic DNA directly for next generation sequencing. Recorded information was extracted via custom analysis code. Each enhancer has a unique barcode representing its activity. Transcription activation was measured as the fold change in the barcode abundance relative to the negative control barcode. All measurements were performed in triplicates.

[3] = test system: biotinylated target dsDNA with non-biotinylated competitor dsDNA; test: Yeast display competition assay with base-substituted competitor dsDNA; type: binding; conditions: all possible base mutations at each position of the competitor oligo
Excerpt: We used a yeast display competition assay to characterize the DNA binding site specificity of a subset of the designs (FIG. 1A-E, left; FIG. 5). Addition of non-biotinylated competitor dsDNA to biotinylated target sequence reduced binding signal by flow cytometry (FIG. 1A-E, middle). […] For example, in DBP6 (FIG. 1A) R31 and R36 in the design model form bidentate hydrogen bonds with the guanines of base pair positions G12 and C9, respectively, while T32 forms a hydrogen bond with C10.
as §1

Molecule	Target sequence preference [1]	Number of the 13 tested DNA target sequences preferentially bound ([1]; 1 μM dsDNA with avidity)	Binding specificity versus design models [1]	other results
DBP23: designed DNA-binding protein, SEQ ID NO: 9, DNA target B (PLAELGKAIKEARKRKGLTQAEVAKAAGVSRATVQRLELGKAKSIRPDKLRAILEVVGL)	bound to most of the targets	–	–	–
DBP51: designed DNA-binding protein, SEQ ID NO: 25, DNA target E (MEADPAVVFGRRLRAARRAKGLTQAELAERAGLGQGTISRYEKGRTLPSPEQVEKLLAAL)	–	less than 3	bound with specificity closely consistent with the design models	–
DBP44: designed DNA-binding protein, SEQ ID NO: 18, DNA target G (KEERVLAALEAHPWSTLAEIAELTGLSRSTVSRILSRLRKEGKCDSRREGRKVRYWLVRR)	bound to most of the targets	–	–	–
DBP69: designed DNA-binding protein, SEQ ID NO: 38, DNA target C (MKEEGRKLKELRERLGLTQAELAEALGLGQSTISRLERGRKEISPEVWEKALALLE)	–	less than 3	bound with specificity closely consistent with the design models	–
DBP90: designed DNA-binding protein, SEQ ID NO: 49, DNA target A (NKYQLSLLESAFQSNRYPDISQRATLASQTGLPERRIKIWFQNRRQRWKRKK)	–	–	–	Binding to initial design target ([1]; yeast surface display, 1 μM dsDNA with avidity): bound weakly; Binding to alternate target sequence ([1]; yeast surface display, 1 μM dsDNA with avidity, alternate target H (DBP90), D (DBP48), C (DBP57)): strongly
DBP9: designed DNA-binding protein, SEQ ID NO: 6, DNA target B (DWERRCAYARRARKELGLTQAELGELAGVSRTTVSRIERGKPDVSEASVEAVLAVL)	strong preference for only their designed target sequence	less than 3	bound with specificity closely consistent with the design models	Fold activation of synTFs measured as normalized barcode abundance in the DNA TAPE [2]: 3-5 fold; DNA binding site specificity [3]: specificity for a 6 nucleotide stretch (TGCACA) with peripheral dependence on T8 and A13
DBP52: designed DNA-binding protein, SEQ ID NO: 26, DNA target E (RPLTPAEVFGRELRRLRRAAGLTQAELAERAGIGQGTVSRYEHGRRLPSPEEQERLLAAL)	strong preference for 2 or 3 of the sequence targets	–	–	–
DBP83: designed DNA-binding protein, SEQ ID NO: 43, DNA target A (PREREILRLLAEGKNAWEIAQILNISVRTVRNHLRNAMRKLGARNRVQAVARALRLG)	–	less than 3	–	–
B1	bound to most of the targets	–	–	–
B2	strong preference for only their designed target sequence	less than 3	bound with specificity closely consistent with the design models	DNA binding site specificity [3]: dependent on bases peripheral to the binding site (e.g. C11); also recorded: exhibited specificity for its target site
B3	–	less than 3	bound with specificity closely consistent with the design models	–
B4	–	–	bound with specificity closely consistent with the design models	–
B5	–	less than 3	bound with specificity closely consistent with the design models	DNA binding site specificity [3]: specificities consistent with the designed sidechain-base interactions
B6	strong preference for 2 or 3 of the sequence targets	less than 3	bound with specificity closely consistent with the design models	Fold activation of synTFs measured as normalized barcode abundance in the DNA TAPE [2]: 3-5 fold
B7	–	–	bound with specificity closely consistent with the design models	–
